The target of the test is human STIM1 (human, UniProt Q13586 23-685, limits assumed). Kind of test: co-immunoprecipitation from CHO cell lysates, Western blot; repeated with cross-linker DSP and different detergents. As for the experimental part:
Next, the interaction of P311 with SOCE molecular machinery was examined experimentally. The interaction of P311 with known components of SOCE, such as STIM1 and Orai1, was studied. A GFP-myc-Orai1 plasmid and the mammalian expression plasmid containing the human STIM1 cDNA (OriGene, Inc.) were used. The plasmids were transfected into CHO cells and 36 hours after transfection, total cell lysates from CHO cells transiently expressing GFP-myc-Orai1 were incubated with either a polyclonal antibody against P311, or an anti-myc monoclonal antibody, with normal rabbit IgG serving as the control. […] Similar results were obtained when co-IP assays were repeated using reversible cross-linker DSP and different detergents in cell lysis buffer, including Triton X-100, NP-40 and CHAPS.

human STIM1, sequence (Q13586 23-685 limits assumed): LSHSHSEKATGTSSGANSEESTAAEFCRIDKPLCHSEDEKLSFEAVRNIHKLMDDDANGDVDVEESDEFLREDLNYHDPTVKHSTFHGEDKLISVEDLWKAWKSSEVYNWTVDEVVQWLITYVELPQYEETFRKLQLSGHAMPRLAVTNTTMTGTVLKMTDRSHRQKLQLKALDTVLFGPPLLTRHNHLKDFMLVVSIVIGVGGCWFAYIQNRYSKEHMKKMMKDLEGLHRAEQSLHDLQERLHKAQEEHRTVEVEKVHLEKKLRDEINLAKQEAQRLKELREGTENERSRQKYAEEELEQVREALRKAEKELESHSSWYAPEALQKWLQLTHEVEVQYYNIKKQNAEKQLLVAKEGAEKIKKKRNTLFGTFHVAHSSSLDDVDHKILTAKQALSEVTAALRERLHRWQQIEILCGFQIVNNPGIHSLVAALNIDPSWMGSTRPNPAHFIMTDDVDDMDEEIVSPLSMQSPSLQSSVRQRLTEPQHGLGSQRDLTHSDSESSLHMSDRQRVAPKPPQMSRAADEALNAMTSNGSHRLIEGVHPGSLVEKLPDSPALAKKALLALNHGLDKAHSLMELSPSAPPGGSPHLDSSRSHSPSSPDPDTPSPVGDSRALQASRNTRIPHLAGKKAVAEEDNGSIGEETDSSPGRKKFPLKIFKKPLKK

B1: P311 (endogenous P311 present in CHO cells) (other)
chain: MVYYPGLLVWVSQEPFLYKEMEGSLTKGRLPVPKEVNRKKLEEARAASMTPPGSHELCFPNISYL
Regarding B1, the binding result was “no binding”.

The record behind these values is patent US20100061942A1 (UNIVERSITY OF MEDICINE AND DENTISTRY OF NEW JERSEY, published 2010).
